Reference: US20220306695A1, “COMPSTATIN ANALOGUES AND THEIR MEDICAL USES” (priority 2019, published 2022)
Positions of bridges follow the written chain, without caps; N, C: chain ends. Non-standard residues stand in square brackets, D forms with d. Trp(1-Me) = Cn1cc(C[C@H](N)C(=O)O)c2ccccc21; Sar = CNCC(=O)O

Target: Human C3 (human, UniProt P01024 23-1663)
Test: cell-based or functional assay

Sequence of Human C3 (P01024 23-1663 limits assumed): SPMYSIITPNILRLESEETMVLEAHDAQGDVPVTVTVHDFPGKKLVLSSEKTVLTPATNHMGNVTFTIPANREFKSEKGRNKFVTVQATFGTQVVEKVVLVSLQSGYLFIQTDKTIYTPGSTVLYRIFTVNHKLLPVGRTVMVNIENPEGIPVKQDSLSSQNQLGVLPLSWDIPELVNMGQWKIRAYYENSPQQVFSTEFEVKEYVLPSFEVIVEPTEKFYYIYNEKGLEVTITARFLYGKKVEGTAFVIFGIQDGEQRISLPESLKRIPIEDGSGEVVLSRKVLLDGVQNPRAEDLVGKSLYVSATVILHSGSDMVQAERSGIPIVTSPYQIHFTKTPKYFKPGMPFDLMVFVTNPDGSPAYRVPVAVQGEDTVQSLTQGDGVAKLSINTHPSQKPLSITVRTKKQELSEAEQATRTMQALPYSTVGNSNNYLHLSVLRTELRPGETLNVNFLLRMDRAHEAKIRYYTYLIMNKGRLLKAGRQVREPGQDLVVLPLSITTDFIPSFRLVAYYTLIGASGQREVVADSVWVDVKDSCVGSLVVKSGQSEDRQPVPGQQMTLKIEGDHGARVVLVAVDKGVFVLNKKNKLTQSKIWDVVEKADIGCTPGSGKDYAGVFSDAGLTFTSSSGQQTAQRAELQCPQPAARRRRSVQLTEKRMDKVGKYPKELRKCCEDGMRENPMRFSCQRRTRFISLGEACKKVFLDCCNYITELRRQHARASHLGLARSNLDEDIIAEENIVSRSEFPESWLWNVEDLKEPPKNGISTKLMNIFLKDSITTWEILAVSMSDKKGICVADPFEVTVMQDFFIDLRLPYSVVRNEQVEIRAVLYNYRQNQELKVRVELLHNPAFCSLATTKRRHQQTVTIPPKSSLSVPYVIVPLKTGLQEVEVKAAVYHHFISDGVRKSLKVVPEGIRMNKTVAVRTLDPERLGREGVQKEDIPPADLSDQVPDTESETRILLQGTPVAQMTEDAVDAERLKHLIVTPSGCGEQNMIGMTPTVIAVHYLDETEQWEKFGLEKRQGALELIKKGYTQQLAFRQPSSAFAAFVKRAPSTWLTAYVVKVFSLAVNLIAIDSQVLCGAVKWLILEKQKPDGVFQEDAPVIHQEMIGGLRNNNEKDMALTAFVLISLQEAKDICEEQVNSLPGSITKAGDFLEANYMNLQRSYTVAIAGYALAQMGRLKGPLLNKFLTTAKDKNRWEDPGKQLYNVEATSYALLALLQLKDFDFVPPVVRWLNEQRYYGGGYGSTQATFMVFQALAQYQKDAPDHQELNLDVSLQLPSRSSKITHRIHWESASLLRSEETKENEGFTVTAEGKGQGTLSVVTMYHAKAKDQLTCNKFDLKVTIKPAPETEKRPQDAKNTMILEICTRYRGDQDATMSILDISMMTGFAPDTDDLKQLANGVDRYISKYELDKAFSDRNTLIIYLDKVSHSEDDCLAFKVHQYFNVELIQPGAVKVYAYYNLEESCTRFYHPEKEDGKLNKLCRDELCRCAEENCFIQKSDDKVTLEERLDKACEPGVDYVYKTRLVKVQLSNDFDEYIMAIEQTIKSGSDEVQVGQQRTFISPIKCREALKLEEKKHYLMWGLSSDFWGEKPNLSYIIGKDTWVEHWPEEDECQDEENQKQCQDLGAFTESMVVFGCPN

B1: Compound 83 (peptide)
peptide: Ac-SEFCI[Trp(1-Me)]QEWGEHRC[Sar]EA-NH2
modifications: disulfide 4-14
SMILES: CC[C@H](C)[C@@H]1NC(=O)[C@@H](NC(=O)[C@H](Cc2ccccc2)NC(=O)[C@H](CCC(=O)O)NC(=O)[C@H](CO)NC(C)=O)CSSC[C@@H](C(=O)N(C)CC(=O)N[C@@H](CCC(=O)O)C(=O)N[C@@H](C)C(N)=O)NC(=O)[C@H](CCCNC(=N)N)NC(=O)[C@H](Cc2c[nH]cn2)NC(=O)[C@H](CCC(=O)O)NC(=O)CNC(=O)[C@H](Cc2c[nH]c3ccccc23)NC(=O)[C@H](CCC(=O)O)NC(=O)[C@H](CCC(N)=O)NC(=O)[C@H](Cc2cn(C)c3ccccc23)NC1=O
IC50[nM], inhibition of hemolysis: < 100 nM

B2: Compound 84 (peptide)
peptide: Ac-SEFCI[Trp(1-Me)]QDWGEHRCSEA-NH2
modifications: disulfide 4-14
SMILES: CC[C@H](C)[C@@H]1NC(=O)[C@@H](NC(=O)[C@H](Cc2ccccc2)NC(=O)[C@H](CCC(=O)O)NC(=O)[C@H](CO)NC(C)=O)CSSC[C@@H](C(=O)N[C@@H](CO)C(=O)N[C@@H](CCC(=O)O)C(=O)N[C@@H](C)C(N)=O)NC(=O)[C@H](CCCNC(=N)N)NC(=O)[C@H](Cc2c[nH]cn2)NC(=O)[C@H](CCC(=O)O)NC(=O)CNC(=O)[C@H](Cc2c[nH]c3ccccc23)NC(=O)[C@H](CC(=O)O)NC(=O)[C@H](CCC(N)=O)NC(=O)[C@H](Cc2cn(C)c3ccccc23)NC1=O
IC50[nM], inhibition of hemolysis: < 100 nM

B3: Compound 87 (peptide)
peptide: Ac-GEFCI[Trp(1-Me)]QDWGEHRC[Sar]EA-NH2
modifications: disulfide 4-14
SMILES: CC[C@H](C)[C@@H]1NC(=O)[C@@H](NC(=O)[C@H](Cc2ccccc2)NC(=O)[C@H](CCC(=O)O)NC(=O)CNC(C)=O)CSSC[C@@H](C(=O)N(C)CC(=O)N[C@@H](CCC(=O)O)C(=O)N[C@@H](C)C(N)=O)NC(=O)[C@H](CCCNC(=N)N)NC(=O)[C@H](Cc2c[nH]cn2)NC(=O)[C@H](CCC(=O)O)NC(=O)CNC(=O)[C@H](Cc2c[nH]c3ccccc23)NC(=O)[C@H](CC(=O)O)NC(=O)[C@H](CCC(N)=O)NC(=O)[C@H](Cc2cn(C)c3ccccc23)NC1=O
IC50[nM], inhibition of hemolysis: < 100 nM
